The values below come from US9200045B2, “Small molecule-dependent inteins and uses thereof” (President and Fellows of Harvard College, priority 2011, dated 2015).

The subject of one test is Gli1. Put plainly: 4-HT-dependent intein splicing in the Gli1 context in HEK293 cells. The note with it: 1 μM 4-HT. The test is classed as cell-based, human. The text has this: (§1) p3XFlag-CMV-14 (Sigma) vectors with Gli1-intein (2-4 and 3-2), and Gli3T-intein (2-4 and 3-2) sequences were previously described (Yuen et al., 2006). p3XFlag-CMV-14 mCherry-intein (2-4 and 3-2) vectors were constructed by cloning the 2-4 and 3-2 intein sequences into the pRSET-B mCherry vector provided by Professor Roger Tsien (University of California at San Diego). The mCherry-intein 2-4 and mCherry-intein 3-2 sequences were then amplified using oligonucleotides introducing a 5′ EcoRI site and a 3′ BamHI site and ligated into EcoRI- and BamHI-digested p3XFlag-CMV-14 vector. 30R3-1 intein sequence and 37R3-2 intein sequence were amplified using the following oligonucleotides compatible with mCherry, Gli1, or Gli3 contexts.

The test system of a further test is Gli3T. Put plainly: 4-HT-dependent intein splicing in the Gli3T context in HEK293 cells. The note with it: 1 μM 4-HT. Format: cell-based, human.
Excerpt: as §1

Test [1] relates to GFP. The note with it: yeast.
Test [2] concerns GFP. The note with it: HEK293, 37° C.
Another test has as its system mCherry. Put plainly: 4-HT-dependent intein splicing in the mCherry context in HEK293 cells. Format: cell-based, human. The note with it: for spliced mCherry protein: HEK293, 37° C., 1 μM 4-HT.
Excerpt: as §1
HEK293 cells were grown in 10 cm dishes or 6-well plates and transfected with relevant mammalian vectors using Effectene. After growth in the absence of 4-HT or in the presence of 1 μM 4-HT for 24 hours, cells were trypsinized and resuspended in 500 μL of phosphate buffered saline with 1% FBS and 75 U/mL DNase (New England Biolabs). Cell fluorescence analysis was carried out on a BD LSRII cell analyzer.

The test system of test [3] is GFP, mCherry, Gli1, and Gli3T. Put plainly: Intein splicing across all four proteins tested in mammalian cells. The note with it: no 4-HT.
Method: Western blots were performed using Nu-PAGE 12% Bis-Tris gels (Invitrogen) in 3-(Nmorpholino) propanesulfonic acid (MOPS)-sodium dodecyl sulfate (SDS) buffer (Invitrogen). SDSpolyacrylamide gel electrophoresis (PAGE) and Western blotting were performed using standard protocols. Gels were transferred onto polyvinylidene fluoride (PDVF) membranes (Millipore). Western blots were processed using a mouse anti-FLAG antibody (Sigma) as the primary antibody and a secondary Alexa Fluor 800-conjugated goat anti-mouse antibody (Li-cor Biosciences), then visualized and quantitated using an Odyssey imager (Li-cor Biosciences). […]
The inteins were inserted into mCherry, a red fluorescent protein, in place of Thr 113, the residue in mCherry that corresponds to the Cys residue used for intein insertion in GFP. As in the case of GFP, this placement positions the intein near the mid-point of a β-strand and abolishes mCherry fluorescence until splicing takes place (vide infra). […]
The splicing characteristics of the newly evolved inteins was investigated in the contexts of two additional mammalian proteins, Gli1 and Gli3T. […] The resulting constructs were introduced into HEK293 cells and splicing was evaluated by Western blot as described above.
[4] abbreviates: HEK293, at 24 hours or 12 hours.

Substitutions are numbered along the chain they refer to.

B1: 3-2: previously evolved parental 4-HT-dependent intein, derived from the 2-4 intein (protein)
chain: CLAEGTRIFDPVTGTTHRIEDVVDGRKPIHVVAVAKDGTLLARPVVSWFDQGTRDVIGLRIAGGAIVWATPDHKVLTEYGWRAAGELRKGDRVAGPGGSGNSLALSLTADQMVSALLDAEPPILYSEYDPTSPFSEASMMGLLTNLADRELVHMINWAKRVPGFVDLTLHDQAHLLECAWLEILMIGLVWRSMEHPGKLLFAPNLLLDRNQGKCVEGMVEIFDMLLATSSRFRMMNLQGEEFVCLKSIILLNSGVYTFLSSTLKSLEEKDHIHRALDKITDTLIHLMAKAGLTLQQQHQRLAQLLLILSHIRHMSNKGMEHLYSMKYTNVVPLYDLLLEMLDAHRLHAGGSGASRVQAFADALDDKFLHDMLAEELRYSVIREVLPTRRARTFDLEVEELHTLVAEGVVVHNC
With B1, the Gli1 protein spliced in the test with Gli1 (HEK293, after 12 hours) is on record as 22%; in the test on Gli1 (HEK293, after 24 hours), 32%. Besides, the “spliced Gli3T protein” value in the test with Gli3T (HEK293, after 12 hours) stood at 10%; in the test on Gli3T (HEK293, after 24 hours), 18%. Further, in the test with GFP [1] (30° C., after 24 hours, no 4-HT), the “splicing in the absence of 4-HT (background splicing)” value was determined as 15%. Moreover, the spliced protein result in the test on GFP [1] (37° C., 1 hour after 4-HT treatment) was “did not generate significant amounts of spliced protein”. The “fraction of the total spliced GFP after 24 hours that was present after 12 hours” value in the test on GFP [2] (1 μM 4-HT) was 45%. Moreover, the “spliced GFP” value with GFP [2] (after 24 hours, 1 μM 4-HT) came out at 33%.

B2: 37R3-2: evolved 4-HT-dependent intein, clone from 37° C. evolution, Round 3 (protein)
chain: B1 chain with V34A, I66T, C178R, T328K
Take B2: the “spliced mCherry protein” value with mCherry (after 12 hours) is 43%. For the same molecule, in the test with mCherry (after 24 hours), the “spliced mCherry protein” value was found to be 72%. Besides, in the test with mCherry (setting [4]), the “fold higher percentage of spliced mCherry than that of 3-2 intein” value is roughly 3 fold and the “fold higher percentage of spliced mCherry than that of the 2-4 intein” value is roughly 5 fold. Further, in the test with GFP [2] (GFP context, no 4-HT), the “background splicing in the absence of 4-HT” value was “not observed”. In the test with GFP [2] (after 24 hours, 1 μM 4-HT), the “fold higher GFP splicing efficiency than the original 2-4 intein” value is listed as 3.8 fold, the “fold higher GFP splicing efficiency than the original 3-2 intein” value turned out to be 2.2 fold and the “spliced GFP” value is listed as 73%. Also, the “background splicing in the absence of 4-HT” value in test [3] was “very low and often was not detectable”.
